Test results as given in paper PMC6547012, “TCP Transcription Factors Associate with PHYTOCHROME INTERACTING FACTOR 4 and CRYPTOCHROME 1 to Regulate Thermomorphogenesis in Arabidopsis thaliana” (iScience, 2019).

Biological target: T1, FLAG-CRY1 (Arabidopsis thaliana, UniProt Q43125 1-681)
T1 construct: CRYPTOCHROME 1 (CRY1), Arabidopsis thaliana; source: E. coli-purified
Assay: pull-down; in vitro pull-down; MBP or MBP-TCP17 incubated with FLAG-CRY1 for 2 h at 4°C; immunoblot with anti-MBP or anti-FLAG
Conditions: both partners purified

T1 sequence (Q43125 whole entry): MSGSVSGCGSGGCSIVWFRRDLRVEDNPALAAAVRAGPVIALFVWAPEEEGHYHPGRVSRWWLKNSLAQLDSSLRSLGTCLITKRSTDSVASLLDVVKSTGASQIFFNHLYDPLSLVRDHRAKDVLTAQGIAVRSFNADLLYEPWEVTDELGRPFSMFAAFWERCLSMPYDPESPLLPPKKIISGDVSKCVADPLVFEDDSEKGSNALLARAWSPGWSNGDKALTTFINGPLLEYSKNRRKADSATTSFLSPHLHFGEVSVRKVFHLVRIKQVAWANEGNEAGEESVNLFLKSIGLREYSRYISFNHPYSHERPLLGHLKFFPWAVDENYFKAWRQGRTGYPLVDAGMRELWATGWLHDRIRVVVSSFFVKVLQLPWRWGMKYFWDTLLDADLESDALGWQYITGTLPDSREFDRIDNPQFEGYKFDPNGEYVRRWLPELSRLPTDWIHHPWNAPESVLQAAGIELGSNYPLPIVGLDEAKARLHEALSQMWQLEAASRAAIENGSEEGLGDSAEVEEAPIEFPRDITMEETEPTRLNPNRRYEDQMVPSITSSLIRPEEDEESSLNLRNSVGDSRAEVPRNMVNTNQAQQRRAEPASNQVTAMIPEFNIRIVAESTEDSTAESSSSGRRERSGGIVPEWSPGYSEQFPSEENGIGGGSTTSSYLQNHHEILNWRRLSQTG

B1: MBP-TCP17 (natural protein, Arabidopsis thaliana, UniProt Q9LEZ9 1-242, looked up)
chain: MGIKKEDQKSSLSLLTQRWNNPRIVRVSRAFGGKDRHSKVCTVRGLRDRRIRLSVMTAIQVYDLQERLGLSQPSKVIDWLLEVAKNDVDLLPPLQFPPGFHQLNPNLTGLGESFPGVFDLGRTQREALDLEKRKWVNLDHVFDHIDHHNHFSNSIQSNKLYFPTITSSSSSYHYNLGHLQQSLLDQSGNVTVAFSNNYNNNNLNPPAAETMSSLFPTRYPSFLGGGQLQLFSSTSSQPDHIE
notes: TCP17, Arabidopsis thaliana; also called MBP-tagged TCP17; source: E. coli expressed and purified
binding result: binds
